Laboratory results from patent US10617652B2, “Polymers and polymeric nanogels with hydrophilics encapsulation and release capabilities and methods thereof” (University of Massachusetts, priority 2014, dated 2020).

Biological target: T1, acid α-glucosidase (GAA) (Homo sapiens, UniProt P10253)
T1 construct: purchased Genzyme, Inc. (Myozyme)
Assay: GAA activity assay with para-nitrophenol-α-D-glucopyranoside substrate
Assay type: biochemical
Description: The activity of the encapsulated GAA, relative to the free GAA, was evaluated. It was envisioned that the enzyme would be less available to the substrate, when encapsulated, and therefore would have a lower activity. It follows then that the activity will be recovered when exposing the nanogel to lower pH, as the enzyme will be released in response to the β-thioester cleavage based decrosslinking. The enzymatic activity was measured using para-nitrophenol-α-D-glucopyranoside as substrate, the GAA-assisted cleavage of the α-1,4-linkage of which releases the chromophore p-nitrophenolate (pNP). […] Note, however, that the enzymatic activity of GAA itself at pH 7.4 is undetectable (FIG. 4a).
To activate the GAA from the nanogel, the pH of the solution was reduced to 5.0 using acetate buffer. […] To calibrate the percentage of activity that was recovered after 48 hours of incubation at pH 5.0, the enzymatic activity of the GAA from the nanogel was compared with that of the free enzyme at the same concentration. […]
GAA activity was measured using para-nitrophenol-α-D-glucopyranoside as a substrate in 100 mM Citrate/100 mM Sodium Phosphate buffer at pH 5.0. […] Presence of the product formation (para-nitrophenolate) was then measured by absorbance of 400 nm light on a Molecular Devices Spectra Max M5 at 25° C. […]

## acid α-glucosidase [GAA]
  enzymatic activity at pH 7.4: undetectable
